Data taken from article PMC4588886, “A link between magnesium-chelatase H subunit and sucrose nonfermenting 1 (SNF1)-related protein kinase SnRK2.6/OST1 in Arabidopsis guard cell signalling in response to abscisic acid” (Journal of Experimental Botany, 2015).

What was measured:
[1] = biological target: T1, GST-tagged C-terminal half of ABAR protein (aa 681-1381) (Arabidopsis thaliana, UniProt Q9FNB0 681-1381); assay: SPR
T1 chain: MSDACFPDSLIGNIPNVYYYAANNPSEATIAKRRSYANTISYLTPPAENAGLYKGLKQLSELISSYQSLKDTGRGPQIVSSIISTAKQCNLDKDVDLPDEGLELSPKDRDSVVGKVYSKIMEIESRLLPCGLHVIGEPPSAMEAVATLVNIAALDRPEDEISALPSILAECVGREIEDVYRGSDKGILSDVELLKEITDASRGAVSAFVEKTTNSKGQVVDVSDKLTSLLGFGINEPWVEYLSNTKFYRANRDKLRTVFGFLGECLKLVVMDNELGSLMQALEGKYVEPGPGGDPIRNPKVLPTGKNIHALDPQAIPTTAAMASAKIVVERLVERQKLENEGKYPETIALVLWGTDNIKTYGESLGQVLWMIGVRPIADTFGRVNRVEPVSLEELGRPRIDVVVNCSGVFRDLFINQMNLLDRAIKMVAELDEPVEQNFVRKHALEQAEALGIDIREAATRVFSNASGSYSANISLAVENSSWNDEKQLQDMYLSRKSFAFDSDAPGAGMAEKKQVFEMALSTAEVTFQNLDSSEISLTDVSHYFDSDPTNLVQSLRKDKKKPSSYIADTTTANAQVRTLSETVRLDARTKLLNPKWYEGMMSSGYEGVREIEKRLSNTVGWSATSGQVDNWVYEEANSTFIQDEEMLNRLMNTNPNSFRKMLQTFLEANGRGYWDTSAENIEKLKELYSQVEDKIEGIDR

[2] = biological target: T2, GST-tagged C-terminal half of ABAR protein (aa 681-1381) (Arabidopsis thaliana, UniProt Q9FNB0 681-1381); assay: pull-down; GST-tagged ABAR (aa 681-1381, 1 ug) or GST alone added to E. coli lysate expressing His-tagged OST1; glutathione-sepharose 4B beads, 4 °C, 12 h; 10 mM Tris-HCl pH 7.5, 200 mM NaCl, 10% glycerol; blot with anti-His; conditions: one partner purified
T2 construct: Cloned into pGEX-4T-1; also called GST-ABAR; recombinant truncated ABAR protein; source: E. coli BL21(DE3), purified (Sepharose 4B)
T2 sequence (looked up): T1 chain

B1: His-tagged OST1 protein (recombinant, full-length ORF) (enzyme, Arabidopsis thaliana, UniProt Q940H6 1-362, looked up)
chain: MDRPAVSGPMDLPIMHDSDRYELVKDIGSGNFGVARLMRDKQSNELVAVKYIERGEKIDENVKREIINHRSLRHPNIVRFKEVILTPTHLAIVMEYASGGELFERICNAGRFSEDEARFFFQQLISGVSYCHAMQVCHRDLKLENTLLDGSPAPRLKICDFGYSKSSVLHSQPKSTVGTPAYIAPEVLLKKEYDGKVADVWSCGVTLYVMLVGAYPFEDPEEPKNFRKTIHRILNVQYAIPDYVHISPECRHLISRIFVADPAKRISIPEIRNHEWFLKNLPADLMNDNTMTTQFDESDQPGQSIEEIMQIIAEATVPPAGTQNLNHYLTGSLDIDDDMEEDLESDLDDLDIDSSGEIVYAM
notes: SNF1-related protein kinase SnRK2.6/OST1/SRK2E, Arabidopsis thaliana, At4g33950, full-length ORF; Cloned into pET-48b(+); also called recombinant OST1; SnRK2.6; source: E. coli BL21(DE3): in cell lysate (pull-down); purified (Ni-NTA agarose)
Kd [1]: ~71.4 nM
binding result [2]: binds
